The values below come from the supplement of paper PMC10567573.

B1: GNB5 (parent)
chain: DINSVRYYPSGDAFASGSDDATCR
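Note: lentivirally expressed fusions sorted by FACS into six bins by GFP to DsRed ratio, PSI derived from sequencing read proportions per bin multiplied by bin number.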

The data set covers variants of B1. As to the kind of experiment: protein stability index of a GFP-peptide fusion (GPS, HEK-293T) (PSI 1-6); higher = more stable. The settings on record: c terminus: a fixed tail appended.
Consider DINSVRYYPSGDTFASGSDDATCR, for which the protein stability index was determined as 4. In the case of DINSVRYYPSGDCFASGSDDATCR, the protein stability index stood at 3.71. Under DINSVRYYPSGDLFASGSDDATCR stands 3.44. Under DINSVRYYPSGDMFASGSDDATCR stands 3.69.

Consider DINSVRYYPSGDDFASGSDDATCR, for which the protein stability index stood at 4.47. With DINSVRYYPSGDNFASGSDDATCR the figure was 3.98; with DINSVRYYPSGDFFASGSDDATCR, 3.12; with DINSVRYYPSGDGFASGSDDATCR, 4.03. For DINSVRYYPSGDHFASGSDDATCR, the protein stability index worked out at 4.02. Turning to DINSVRYYPSGDYFASGSDDATCR, the protein stability index amounted to 3.22. With DINSVRYYPSGDRFASGSDDATCR the figure was 3.81; with DINSVRYYPSGDWFASGSDDATCR, 3.42; with DINSVRYYPSGDIFASGSDDATCR, 3.28. Under DINSVRYYPSGDQFASGSDDATCR stands 4.4; under DINSVRYYPSGDSFASGSDDATCR, 3.88. Take DINSVRYYPSGDEFASGSDDATCR: the protein stability index stood at 4.66. With DINSVRYYPSGDPFASGSDDATCR the figure was 4.14; with DINSVRYYPSGDVFASGSDDATCR, 3.69.

For DINSVRYYPSGDKFASGSDDATCR, the protein stability index worked out at 3.53. Under DINSVRYYPSADAFASGSDDATCR stands 3.61.

In the case of DINSVRYYPSYDAFASGSDDATCR, the protein stability index is 3.48. Under DINSVRYYPSIDAFASGSDDATCR stands 3.59; under DINSVRYYPSHDAFASGSDDATCR, 3.62. With DINSVRYYPSRDAFASGSDDATCR the figure was 3.67; with DINSVRYYPSWDAFASGSDDATCR, 2.91. Regarding DINSVRYYPSTDAFASGSDDATCR, the protein stability index worked out at 3.74. Consider DINSVRYYPSFDAFASGSDDATCR, for which the protein stability index amounted to 3.61. As to DINSVRYYPSCDAFASGSDDATCR, the protein stability index was found to be 3.23. On to DINSVRYYPSKDAFASGSDDATCR, for which the protein stability index came out at 3.68. With DINSVRYYPSPDAFASGSDDATCR, the protein stability index was 3.93. Turning to DINSVRYYPSLDAFASGSDDATCR, the protein stability index is 3.9. Under DINSVRYYPSVDAFASGSDDATCR stands 3.46; under DINSVRYYPSSDAFASGSDDATCR, 4.09.

In the case of DINSVRYYPSNDAFASGSDDATCR, the protein stability index turned out to be 3.81. Consider DINSVRYYPSMDAFASGSDDATCR, for which the protein stability index was found to be 4.02. With DINSVRYYPSQDAFASGSDDATCR, the protein stability index is 3.91. Consider DINSVRYYPSDDAFASGSDDATCR, for which the protein stability index amounted to 4.4. Consider DINSVRYYPSEDAFASGSDDATCR, for which the protein stability index stood at 4.72. As to DINSVRYYISGDAFASGSDDATCR, the protein stability index came out at 2.7. For DINSVRYYASGDAFASGSDDATCR, the protein stability index amounted to 3.59. With DINSVRYYRSGDAFASGSDDATCR the figure was 3.69; with DINSVRYYTSGDAFASGSDDATCR, 4.02; with DINSVRYYVSGDAFASGSDDATCR, 3.62.

Regarding DINSVRYYESGDAFASGSDDATCR, the protein stability index came to 4.16. Turning to DINSVRYYWSGDAFASGSDDATCR, the protein stability index turned out to be 3.23. Under DINSVRYYCSGDAFASGSDDATCR stands 3.17. Regarding DINSVRYYLSGDAFASGSDDATCR, the protein stability index was determined as 3.26. As for DINSVRYYQSGDAFASGSDDATCR, the protein stability index was found to be 3.8. As to DINSVRYYDSGDAFASGSDDATCR, the protein stability index amounted to 4.43. For DINSVRYYYSGDAFASGSDDATCR, the protein stability index came to 3.35. Under DINSVRYYKSGDAFASGSDDATCR stands 3.62. DINSVRYYGSGDAFASGSDDATCR: the protein stability index worked out at 4.13.

As for DINSVRYYMSGDAFASGSDDATCR, the protein stability index turned out to be 3.3. Turning to DINSVRYYHSGDAFASGSDDATCR, the protein stability index was found to be 3.52.

Turning to DINSVRYYSSGDAFASGSDDATCR, the protein stability index turned out to be 4.17.

Regarding DINSVRYYNSGDAFASGSDDATCR, the protein stability index is 3.82. For DINSVRYYFSGDAFASGSDDATCR, the protein stability index was 2.74. Under DINSVRYYPPGDAFASGSDDATCR stands 4.23; under DINSVRYYPWGDAFASGSDDATCR, 3.35; under DINSVRYYPRGDAFASGSDDATCR, 3.4. Under DINSVRYYPQGDAFASGSDDATCR stands 4.08. In the case of DINSVRYYPTGDAFASGSDDATCR, the protein stability index is 3.68. Turning to DINSVRYYPNGDAFASGSDDATCR, the protein stability index was determined as 3.95. Under DINSVRYYPMGDAFASGSDDATCR stands 3.43. With DINSVRYYPIGDAFASGSDDATCR the figure was 3.76; with DINSVRYYPFGDAFASGSDDATCR, 3.3. Under DINSVRYYPCGDAFASGSDDATCR stands 3.49. For DINSVRYYPVGDAFASGSDDATCR, the protein stability index turned out to be 3.73. With DINSVRYYPLGDAFASGSDDATCR, the protein stability index came out at 3.43. For DINSVRYYPYGDAFASGSDDATCR, the protein stability index turned out to be 3.1. Take DINSVRYYPKGDAFASGSDDATCR: the protein stability index amounted to 3.71.

Regarding DINSVRYYPHGDAFASGSDDATCR, the protein stability index turned out to be 3.65.

Regarding DINSVRYYPAGDAFASGSDDATCR, the protein stability index came out at 3.76.

Take DINSVRYYPGGDAFASGSDDATCR: the protein stability index was 4.35. In the case of DINSVRYYPEGDAFASGSDDATCR, the protein stability index amounted to 4.63. With DINSVRYYPDGDAFASGSDDATCR the figure was 4.32; with DINSVRYYPSGDAFASNSDDATCR, 3.68. Take DINSVRYYPSGDAFASKSDDATCR: the protein stability index is 3.65. Take DINSVRYYPSGDAFASFSDDATCR: the protein stability index was 2.93.

Consider DINSVRYYPSGDAFASQSDDATCR, for which the protein stability index is 3.75. Take DINSVRYYPSGDAFASESDDATCR: the protein stability index came to 4.34. Turning to DINSVRYYPSGDAFASVSDDATCR, the protein stability index was determined as 3.65. Take DINSVRYYPSGDAFASHSDDATCR: the protein stability index was found to be 3.4. Turning to DINSVRYYPSGDAFASASDDATCR, the protein stability index is 3.74. Under DINSVRYYPSGDAFASLSDDATCR stands 3.12.

For DINSVRYYPSGDAFASSSDDATCR, the protein stability index came out at 3.84. With DINSVRYYPSGDAFASISDDATCR the figure was 3.21; with DINSVRYYPSGDAFASDSDDATCR, 4.4; with DINSVRYYPSGDAFASMSDDATCR, 3.29. Take DINSVRYYPSGDAFASYSDDATCR: the protein stability index was 3.29. With DINSVRYYPSGDAFASRSDDATCR the figure was 3.65; with DINSVRYYPSGDAFASWSDDATCR, 3.07; with DINSVRYYPSGDAFASPSDDATCR, 4.05. Under DINSVRYYPSGDAFASCSDDATCR stands 3.66.
